Experiment: Isoelectric point of gelatin
Format: physicochemical
Settings: recombinant gelatin CBE3

Substance: CBE3: recombinant gelatin, SEQ ID NO: 1, Gly-Ala-Pro[(Gly-X-Y)63]3Gly, 571 amino acids, 12 RGD sequences
- Isoelectric point: 9.34
